Assay results taken from patent US20110306044A1.
Values joined by “and” are separate entries in the source; they are usually repeats but may differ in a detail not shown here. Equal entries are not always repeated.

Columns and labels:
[1] = molecular target: RDC-1 (NEOKINE receptor), transiently expressed in 293 cells; assay: 125I-T112 at 0.1 nm on 293 cells transiently transfected with RDC-1, no competitor
[2] = molecular target: RDC-1 (NEOKINE receptor), transiently expressed in 293 cells; assay: competition: bound 125I-T112 on RDC-1-transfected 293 cells with unlabelled T112 at 3.0 nm

| Substance | cpm bound in cell pellets [1] | cpm bound in cell pellets [2] |
| --- | --- | --- |
| 125I-T112 (radioiodinated NEOKINE) (ligand) | 37600 cpm and 27000 cpm |  |
| T112 (NEOKINE), unlabelled (ligand) |  | 8340 cpm and 9230 cpm |
